In the nanobody polyreactivity screen of Harvey et al. (2022):

assay: yeast display, Sf9 membrane polyspecificity reagent, FACS + sequencing; frameworks hold sequencing errors
Procedure, shortened: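 Synthetic nanobody libraries on Saccharomyces cerevisiae BJ5465 were galactose-induced for 36–48 hours, stained 1 hour at 4 °C with 10% biotinylated, detergent-solubilized Sf9 membrane reagent and enriched on streptavidin microbeads. FACS then separated cells into low and high (top ~1%) gates by anti-HA (expression) and streptavidin (reagent binding) fluorescence. Genes were colony-PCR amplified, MiSeq 2 × 250 sequenced and CDR-length filtered. A clone's polyreactivity label is that of its gate of origin.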

Sequence | polyreactivity (PSR sort gate)
QVQLVESGGGLVQAGGSLRLSCADSGSTFRRYTMGWYRQAPGKERELVASITRSGGSKYYADSVKGRFTISRDNAKNTVYLQMNSLKPEDTAVYFCNKLSGYGWRSYGYWGQGTQVTVSS | high polyreactivity
QVQLVESGGGLVQAGGSLRLSCADSGSTSYDYAMGWYRQAPGKERELVAAISGSSSTTYYADSVKGRFTISRDNAKNTVYLQMNSLKPEDTAVYYCNAVTTTGSGYGYWGQGTQVTVSS | low polyreactivity
QVQLVESGGGLVQAGGSLRLSCADSGSTSYRYAMGRYRQSPGKERELVAVITSGSSTYYADSVKGRFTISRDNAKNTDYLQINSLKPEDTAVYYCAVGRTYRRYSAASYNYWGQGTQVTVSS | high polyreactivity
QVQLVESGGGLVQAGGSLRLSCAGSGFTFGYYAMGWSRPAPGKERELVAAMSWNGGRTYYADSVKGRFTISRDNAKNTVYLQLNSLKPEDTAVYSCAADYRFYSPTKYSYDDWGQGTQVTVSS | high polyreactivity
QVQLVESGGGLVQAGGSLRLSCAGSGFTFIIYAMGWYREAPGKERELVAAITRSGGSTYYADSVKGRFTISRDNAKNTVYLQMNSLKPEDTAVYYCAAALSVRFYFWGQGTQVTVSS | high polyreactivity
QVQLVESGGGLVQAGGSLRLSCAGSGFTFSSYTIGWYRQAPGKEREFVASISSGGSTNYADSVKGRFTISRDNAKNTVYLQMNSLKPEDTAVYYCAAGTTGITFFDVGSGYDYWGQGTQVTVSS | low polyreactivity
QVQLVESGGGLVQAGGSLRLSCAGSGFTLGSNAMGWYRQAPGKERELVAVISGSGGSTYYADSVKGRFTISRDNAKNTVYLQMNSLKPEDTAVYYCAAQYSAGQYYGYGYWGQGTQVTVSS | high polyreactivity
QVQLVESGGGLVQAGGSLRLSCAGSGHIFRQYAMGWYRQAPGKERELVAAITSGGSTYYADSVKGRFTISRDNAKNTVYLQMNSLKPEDTAVYYCATRPGGDRPIGYDYWGQGTQVTVSS | low polyreactivity
QVQLVESGGGLVQAGGSLRLSCAGSGRIFDLYTMGWYRQAPGKERELVAAIRWSDGSTYYADSVKGRFTISRDNAKNTVYLQINSLKPEDTAVYYCAADTRTSYYNDDYDYWGQGTQVTVSS | low polyreactivity
QVQLVESGGGLVQAGGSLRLSCAGSGRILVQNDMGWYRQAPGNESELVAAIRSDGSTSYADSVKGRFTISRDNAKYTVYLQMNSLKPEDTAVYYCAARIDWTGGYYDYWGQGTQVTVSS | low polyreactivity
QVQLVESGGGLVQAGGSLRLSCAGSGRTFVYYAMGWYRQAPGREREFVAAISRSGGRTSYADSVKGRFTISRDNAKNTVYLHMNSLKPEDTAVNYCAAEKRTQPTSREYYWGQGTQVTVSS | high polyreactivity
QVQLVESGGGLVQAGGSLRLSCAGSGRTVANNAMGWYRQAPGKERELVAAISNGDSPYADSVKGRFTISRDNAKNTVYLQLNSLKPEDTAVYYCATRTQEDYTGDYWGQGTQVTVSS | low polyreactivity
QVQLVESGGGLVQAGGSLRLSCAGSGSIFGEYVMGCYRQATVKERELVADISWRDGDTYYADSVKGRFTISRDNAKNTVYLQMNSLKPEDTAVYYFAADVIVPESYGYWPLSYYYLGQGTQVTVSS | low polyreactivity
QVQLVESGGGLVQAGGSLRLSCAGSGSIFSIYAMGWYRQAPGKERELVAAIRYDGGSTYYADSVKGRFTISRDNAKNTVYLQMNSLKPEDTAVYYCAAKVYFRRRGLHPYDYWGQGTQVNVSS | low polyreactivity
QVQLVESGGGLVQAGGSLRLSCAGSGSSFSNYAMRGYRQATGKERELVAVITTGASTYYADSLKGRFTISRDNAKNTVYLQLNSLKPEDSAVYACAKGKISRETPGIYWSYSYGYWGQGTQVTVSS | high polyreactivity
QVQLVESGGGLVQAGGSLRLSCAGSGSTFGRYAMGWYRQAPGKERELVAAITSDTGNTNYADSVKGRFTISRDNAKNTVYLQMNSLKPEDTAVYYCAAATFWVLWGHVIGNYDSWGQGTQVTVSS | low polyreactivity
QVQLVESGGGLVQAGGSLRLSCAGSGSTFRSNAMGWYRQAPGKERELVAAISQRGGSTYYADSVKGRFTISRDNAKNTVYLQMNSLKPEDTAVYYCAARLYRGWRPFYYWGQGTQVSVSS | high polyreactivity
QVQLVESGGGLVQAGGSLRLSCAGYGSIFWWYPMVWYRQAPGKERELVASISWSGTSTYYADSVKGRFTISRDNAKNTVYLQMNSLKPEDTAVYYCNADVYWPGTPYTHDYWGQGTQVTVSS | low polyreactivity
QVQLVESGGGLVQAGGSLRLSCAPSGFIFRLNGMGWYIQAPGKERELVATIDSGSSTNYADSVKGRFTISRDNAKNTVYLQMNSLKPEDTAVYYCAAVVISYYTHGDYDYWGQGTQVTVSS | low polyreactivity
QVQLVESGGGLVQAGGSLRLSCAPSGFIYSKYVIGWNRPAPGKERELVAAITRSGSSTYYADSVKGRFTISRDNAKNTDYLQMNSLKPEDTAVYYCAADGGYYDDDYWGQGTQVTVSS | high polyreactivity
QVQLVESGGGLVQAGGSLRLSCAPSGGTFYANDMGWYRQAPGKERELVATISKSGGSTYYAESVKRPFTISRDNAKNTVYCQMNSLKPEVTAVYYCAARTTYLYGMYYWGQGTQVTVSS | low polyreactivity

Sequence | polyreactivity (PSR sort gate)
QVQLVESGGGLVQAGGSLRLSCAPSGIIFYYYAMGWYRQAPGKERELVAAITGTGSRTYYADSVKGRFTISRDNAKNTVYLQMNSLKPEDTAVYYCNARSFATGSKVPARGYWGQGTQVTVSS | high polyreactivity
QVQLVESGGGLVQAGGSLRLSCAPSGITFLHYAMGWYRQAPGKERELVAAITRGGITYYADSVKGRFTISRDNAKNSVYLLMNSLKPEDTAVYYCNALGFGSNYDYWGQGTQVTVSS | high polyreactivity
QVQLVESGGGLVQAGGSLRLSCAPSGITFVKNVMGWYRQAPGKEREFVAAISTIGARTYYADSVKGRFTISRDNAKNTVYLQMNSLIPEDTAVYYCNAYKSGYGQEYDYWGQGTQVTVSS | high polyreactivity
QVQLVESGGGLVQAGGSLRLSCAPSGLTFSNYAMGWYRQAPCKERELVAGISSSGGTTYYADSVKGRFTISRDNAKNTVFLQMNSLKPEDTAVYYCATRRHYGSFWYDYWGQGTQVTVSS | high polyreactivity
QVQLVESGGGLVQAGGSLRLSCAPSGNIFGYYVMAWYRQAPGTERELVAAITWSAGTTNYADSVKGRFTISRDNAKNTVYLQMNSLKPEDTAVYYFAVTWWYQDYDLTWYLYDYWGQGTEVTVSS | low polyreactivity
QVQLVESGGGLVQAGGSLRLSCAPSGRIFGTYAMGWYRQAPGKERELVASIRSRGGRTYYADSVKGRFTISRDNAKNTVYLQMNSLKPEDTAVYYCAADVGVYYYSFYYWGQGTQVTVSS | high polyreactivity
QVQLVESGGGLVQAGGSLRLSCAPSGRIFRYYAMGWYRQAPGKERELVATIRSGGSTNYADSVKGRFTISRDNEKNTVYLQMNSLKPEDTAVYYCAATGGILSTYDYWGQVTQVTVSS | high polyreactivity
QVQLVESGGGLVQAGGSLRLSCAPSGRIFSYNTMGWYRQAAGKERELVAAISSSGGSTYYADSVKGRFTISRDNAKNTFYLQMNSLKPEDTALYYCNAVGRFSTRREYWGQGTQVTVSS | high polyreactivity
QVQLVESGGGLVQAGGSLRLSCAPSGRIFYPYAMGWYRQAPGKERELVAAISSRGDSTYYADSVKGRFTISRDNAKNTVYLQMNSLKPEDSAVYYCAAVYGSFPTRLYYWGQGTQVTVSS | high polyreactivity
QVQLVESGGGLVQAGGSLRLSCAPSGRNFWYYGMVWYRPAPGRERELVAAISRSGGRTSYADSVKGRFTISRDNAKNTVYLQMNSLKPEDTAVYYCATDGYYRYGYWGQGTQVTVSS | high polyreactivity
QVQLVESGGGLVQAGGSLRLSCAPSGRNYDRNAMGWYRQAPGKERELVARIDPGDDTNYADSVKGRFTISRDNAKNTVYLQMNSRKPEDTAVYDCASDPDYFLYRTAYYEFDYWGQGTQVTVSS | low polyreactivity
QVQLVESGGGLVQAGGSLRLSCAPSGRTFRTNTMGWYRQAPGKESELVAAINWRGGSTYYADSVKGRFTISRDNAKNTVYLQMNSLKPEDTAVYYCNAQQGRYKYSGRYDYWGQGTQVTVSS | low polyreactivity
QVQLVESGGGLVQAGGSLRLSCAPSGRTFSENAMGWYRQAPGKERELVAAISGSGGRTYYADSVMGRFTISRDNAKNSVFLQMNSLKPEVTAVYYCAKVTRYGSTYDYWGQGTQVTVSS | high polyreactivity
QVQLVESGGGLVQAGGSLRLSCAPSGSIFGVYAMGWYRQAPGKERELVAAISSRGSSTYYADSVKGRFTISRDNAKNTVYLQMNSLKPEDTAVYYCAARPGIRSYPPGYGYWGQGTQVTVSS | high polyreactivity
QVQLVESGGGLVQAGGSLRLSCAPSGSIFNYNIGSYRQAPVKERELVAAVSTNYADSVKGRFTISRDNAKNTVYIQMNSLKPADSAVYYCGVTPEKSCDEYDYWGQGTQVTVSS | low polyreactivity
QVQLVESGGGLVQAGGSLRLSCAPSGSIFPYYAMGWYRQAPGKERELVAAISGSDGTTYYADSVKGRFTISRDNAKNTVYLQMNSLKPEDTAVYYCAVELPELYYYFAYEYWGQGTQVTVSS | high polyreactivity
QVQLVESGGGLVQAGGSLRLSCAPSGSIFVKNAMGWYRQAPGKERELVAFITIRTATTYYADSVKGRFTISRDNAKNTVYLQMNSLKPEDTAVYYCAAAKRQRGYLQREGNYWGQGTQVTVSS | low polyreactivity
QVQLVESGGGLVQAGGSLRLSCAPSGSILRSYDMGWYRQAPGTERELVAAISSSGGSTYYADSVKGRFTISRDNAKNTVYLQMNSLKQEDTAVYYCAAATSRRFDYWGQGTQVTVSS | high polyreactivity
QVQLVESGGGLVQAGGSLRLSCAPSGSTFARNAMGWYRQAPGKERDLVAAIATSGGRTYYADTVKGRFTISRDIAKNTVYLQMNSLKAEDTAVYYCAAAFSLGMYWGQGTQVTVSS | high polyreactivity
QVQLVESGGGLVQAGGSLRLSCAPSGSTFPRNAMGWYRQAPGKERELVAAISYSGGRTYYADSVKGRFTISRDNAKNTVSLQMNSLKPEDTAVYYCAAQPWFTYYYWGQGTQVTVSS | high polyreactivity
